B1: MtyB (Eubacterium limosum) (protein)
chain: MLKGNLFTTFYSKDDIELIHESVLRVFNEVGVKFEYEEALELFKKHGARVEGDLVFIPEELLNKALSTIPESFEIVGPESKLEIGIGKGLVVAPTNGCPNLEDWDGNYRQTNADDLENFYKIINTSDVYGISSQVAADIPGFENCPTESALAQMAMMAKYSRKPMYNILGITPHNYKRGNAREGARECVQLIKKYMDNFDDYVCYSGMCVLPPLTVGTDALEHYFAFAEEKQPITITTCSMTNMTAPPSLMGSIVADFANMLAVAVMIQLIEPGLPVILSPFSSVSDMREVRLMTGAPEFLMIMSGHIAMGDFYRIPVRCSGALADGFTYDYQAGVESTLGALAVSLSNACILPHASGDLSNFNLLSFPKFMMDEEMLRYMKRLHDGVAISEKKANVELIKKVGPRGVYLKGRTPKDYREETYLTSPVFNRGTCNEEGRAATPPIQERAYKVYKERIESFELPDMTQAQKDLLNEHLPEKFKIK
notes: C-terminal hexahistidine tag, codon-optimized gene in pETDuet-1 co-expressed with mtqC in E. coli Tuner(DE3), separated from MtqC by anion exchange
B2: MtcB (Eubacterium limosum) (protein)
chain: MIRNSLTDVFFAKDDVENLHEGVLRVLSKVGVKIENDEALGIFEQHGARVENGTVYIGEVLLNKALQTVPANFELQGFDRTVQVGLDHDPVVIPTNGTPMVLNFDGSYSDTNTDDLVNFYKLIDTSDVMQVTSEIAVDVPGLDKTKDSLLAQTALLMKYSHKPIYNILGATIHNYKKGSVAQGVRENIQFAKKYYGYDDKYVIYSGTCVISPLGVGWEAMDHFMGFIKENQPISITACSMTNLTAPGSLYGSVVEDAAAILSIVVLSQLMNPGLPVLYTSLSSMSDMRYVQLCMGAPEFALITLGHIALANFYKIPVRVGGALGDAFKADYQAGVESFVGLMAPMLSQSAMIPHGCGTMGSFNLTSYEKFIMDEETIRYLMRLRRGFEVSDKRKEKALKDITKVGPRGNFLGGRTPKEYREDNYLASEVFNRKGCKENTREEQGDIRDRARKVYDARMEAYELPDTTLEQKKLLNTELPEQYKFDI
notes: expression plasmid of earlier work

Tests used:
[1] = substrate: C[N+](C)(C)CCCC(=O)[O-]; experiment: UV-visible spectrophotometric MtqC methylation assay; assay type: biochemical, Eubacterium limosum; conditions: ATP, Ti(III)citrate, pH 7.2, 37 °C, anoxic
[2] = substrate: C[N+](C)(C)C[C@H](O)CC(=O)O; experiment: as above; assay type: biochemical, Eubacterium limosum; conditions: methyl acceptor Co(I)-MtqC 15 μM, RamQ 5 μM, ATP, Ti(III)citrate, pH 7.2, 37 °C, anoxic
[3] = methyl acceptor Co(I)-MtqC 30 μM, RamQ 5 μM
[4] = methyl acceptor Co(I)-MtqC 56 μM, RamQ 4.5 μM

| Protein | Km [1, 3] [mM] | kcat [1, 3] [s⁻¹] | Km [2] [mM] | kcat [2] [s⁻¹] | Km [1, 4] [mM] | kcat [1, 4] [s⁻¹] |
| --- | --- | --- | --- | --- | --- | --- |
| B1 | 3.5 ± 0.7 | 3 ± 0.167 | 4.0 ± 0.7 | 6.78 ± 0.442 | – | – |
| B2 | – | – | – | – | 15 ± 6 | 0.138 ± 0.0183 |
